Data from patent US20220040297A1.

Key:
[1] = biological target: CD3ε homodimer protein (human) (UniProt P07766); assay: SPR, CD3e immobilized
[2] = biological target: CD3ε homodimer protein (human) (UniProt P07766); assay: SPR, immobilized CD3ε homodimer
[3] = biological target: CD3ε homodimer protein (human) (UniProt P07766); assay: SPR, CD3ε homodimer on chip

Chain of CD3ε homodimer protein (human) (P07766 23-126 limits assumed): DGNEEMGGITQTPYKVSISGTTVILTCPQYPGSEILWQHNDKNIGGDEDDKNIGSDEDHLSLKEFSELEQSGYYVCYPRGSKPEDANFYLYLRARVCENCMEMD

B1: GLS3000 H27dM (antibody, IgG1, name in Kabat numbering, V domains shown)
VH: QVQLVESGGGVVQPGRSLRLSCAASGFTFSNAWMHWVRQAPGKGLEWVAQIKAKSNNYATYYAESVKGRFTISRDDSKNSLYLQMNSLKTEDTAVYYCRYVHYGAYYGVDAWGQGTTVTVSS
VL: DIVMTQSPLSLPVTPGEPASISCRSSQSLVMSNRNTYLHWYQQKPGQAPRLLIYKVSNRFSGVPDRFSGSGSGTDFTLKISRVEAEDVGVYYCGQGTQVPYTFGQGTKLEIK
**Q.** What does the source list for B1?
**A.** KD ratio to GLS3000 [1]: 3.43; ratio of amounts bound (vs GLS3000) [2]: 0.03

B2: CE115HA000 V95E (antibody, name in Kabat numbering, V domains shown)
VH: QVQLVESGGGVVQPGRSLRLSCAASGFTFSNAWMHWVRQAPGKGLEWVAQIKAKSNNYATYYAESVKGRFTISRDDSKNSLYLQMNSLKTEDTAVYYCRYEHYGAYYGVDAWGQGTTVTVSS
VL: DIVMTQSPLSLPVTPGEPASISCRSSQSLVHSNRNTYLHWYQQKPGQAPRLLIYKVSNRFSGVPDRFSGSGSGTDFTLKISRVEAEDVGVYYCGQGTQVPYTFGQGTKLEIK
**Q.** B2 was tested. Which ratio of amounts bound vs CE115HA000 [3] did it give?
**A.** 9.24

B3: CE115HA000 Y97R (antibody, name in Kabat numbering, V domains shown)
VH: QVQLVESGGGVVQPGRSLRLSCAASGFTFSNAWMHWVRQAPGKGLEWVAQIKAKSNNYATYYAESVKGRFTISRDDSKNSLYLQMNSLKTEDTAVYYCRYVHRGAYYGVDAWGQGTTVTVSS
VL: DIVMTQSPLSLPVTPGEPASISCRSSQSLVHSNRNTYLHWYQQKPGQAPRLLIYKVSNRFSGVPDRFSGSGSGTDFTLKISRVEAEDVGVYYCGQGTQVPYTFGQGTKLEIK
**Q.** How did the ratio of amounts bound vs CE115HA000 [3] turn out when B3 was run?
**A.** 9.27

B4: CE115HA000 D101R (antibody, name in Kabat numbering, V domains shown)
VH: QVQLVESGGGVVQPGRSLRLSCAASGFTFSNAWMHWVRQAPGKGLEWVAQIKAKSNNYATYYAESVKGRFTISRDDSKNSLYLQMNSLKTEDTAVYYCRYVHYGAYYGVRAWGQGTTVTVSS
VL: DIVMTQSPLSLPVTPGEPASISCRSSQSLVHSNRNTYLHWYQQKPGQAPRLLIYKVSNRFSGVPDRFSGSGSGTDFTLKISRVEAEDVGVYYCGQGTQVPYTFGQGTKLEIK
**Q.** For B4, which ratio of amounts bound vs CE115HA000 [3] is on record?
**A.** 9.24

B5: CE115HA000 Y97S (antibody, name in Kabat numbering, V domains shown)
VH: QVQLVESGGGVVQPGRSLRLSCAASGFTFSNAWMHWVRQAPGKGLEWVAQIKAKSNNYATYYAESVKGRFTISRDDSKNSLYLQMNSLKTEDTAVYYCRYVHSGAYYGVDAWGQGTTVTVSS
VL: DIVMTQSPLSLPVTPGEPASISCRSSQSLVHSNRNTYLHWYQQKPGQAPRLLIYKVSNRFSGVPDRFSGSGSGTDFTLKISRVEAEDVGVYYCGQGTQVPYTFGQGTKLEIK
**Q.** For B5, which ratio of amounts bound vs CE115HA000 [3] is on record?
**A.** 9.28

B6: GLS3000 H27dD (antibody, IgG1, name in Kabat numbering, V domains shown)
VH: QVQLVESGGGVVQPGRSLRLSCAASGFTFSNAWMHWVRQAPGKGLEWVAQIKAKSNNYATYYAESVKGRFTISRDDSKNSLYLQMNSLKTEDTAVYYCRYVHYGAYYGVDAWGQGTTVTVSS
VL: DIVMTQSPLSLPVTPGEPASISCRSSQSLVDSNRNTYLHWYQQKPGQAPRLLIYKVSNRFSGVPDRFSGSGSGTDFTLKISRVEAEDVGVYYCGQGTQVPYTFGQGTKLEIK
**Q.** B6 was tested. Which KD ratio to GLS3000 [1] did it give?
**A.** 13600
